Columns and labels:
[1] = substrate: N=C(N)NCCC[C@@H](N)C(=O)O; test: purified protein; settings: 1 mM PMS, 20 mM sodium pyrophosphate, pH 10.0, 25 °C
[2] = substrate: CC(C)C[C@@H](N)C(=O)O; test: purified protein; settings: 1 mM PMS, 20 mM sodium pyrophosphate, pH 10.0, 25 °C

B1: Pseudomonas aeruginosa D-arginine dehydrogenase (PaDADH) (Pseudomonas aeruginosa PAO1) (protein)
chain: MIEADYLVIGAGIAGASTGYWLSAHGRVVVLEREAQPGYHSTGRSAAHYTVAYGTPQVRALTAASRAFFDNPPAGFCEHPLLSPRPEMVVDFSDDPEELRRQYESGKALVPQMRLLDAEQACSIVPVLRRDKVFGATYDPTGADIDTDALHQGYLRGIRRNQGQVLCNHEALEIRRVDGAWEVRCDAGSYRAAVLVNAAGAWCDAIAGLAGVRPLGLQPKRRSAFIFAPPPGIDCHDWPMLVSLDESFYLKPDAGMLLGSPANADPVEAHDVQPEQLDIATGMYLIEEATTLTIRRPEHTWAGLRSFVADGDLVAGYAANAEGFFWVAAQGGYGIQTSAAMGEASAALIRHQPLPAHLREHGLDEAMLSPRRLSP
Q: B1 was tested. Which Km [1] did it give?
A: The Km was 0.033 ± 0.002 mM.

Q: And the Km [2]?
A: The Km was 6.6 ± 0.5 mM.

Q: What about the kcat [2] of the same protein?
A: The kcat was 73 ± 3 s⁻¹.

Q: What about the kcat/Km [2] of the same protein?
A: The kcat/Km was 11000 ± 880 M⁻¹ s⁻¹.
